Experimental data taken from patent US20050142561A1 (published 2005).

Target: T1, Saccharomyces cerevisiae Fab1p (Saccharomyces cerevisiae, UniProt P34756 1-2278)
T1 construct: Constructs used in the two-hybrid, coimmunoprecipitation and cross-linking experiments are not described; also called PI3P 5-kinase
Test: yeast two-hybrid; coimmunoprecipitation; cross-linking

T1 sequence (P34756 whole entry): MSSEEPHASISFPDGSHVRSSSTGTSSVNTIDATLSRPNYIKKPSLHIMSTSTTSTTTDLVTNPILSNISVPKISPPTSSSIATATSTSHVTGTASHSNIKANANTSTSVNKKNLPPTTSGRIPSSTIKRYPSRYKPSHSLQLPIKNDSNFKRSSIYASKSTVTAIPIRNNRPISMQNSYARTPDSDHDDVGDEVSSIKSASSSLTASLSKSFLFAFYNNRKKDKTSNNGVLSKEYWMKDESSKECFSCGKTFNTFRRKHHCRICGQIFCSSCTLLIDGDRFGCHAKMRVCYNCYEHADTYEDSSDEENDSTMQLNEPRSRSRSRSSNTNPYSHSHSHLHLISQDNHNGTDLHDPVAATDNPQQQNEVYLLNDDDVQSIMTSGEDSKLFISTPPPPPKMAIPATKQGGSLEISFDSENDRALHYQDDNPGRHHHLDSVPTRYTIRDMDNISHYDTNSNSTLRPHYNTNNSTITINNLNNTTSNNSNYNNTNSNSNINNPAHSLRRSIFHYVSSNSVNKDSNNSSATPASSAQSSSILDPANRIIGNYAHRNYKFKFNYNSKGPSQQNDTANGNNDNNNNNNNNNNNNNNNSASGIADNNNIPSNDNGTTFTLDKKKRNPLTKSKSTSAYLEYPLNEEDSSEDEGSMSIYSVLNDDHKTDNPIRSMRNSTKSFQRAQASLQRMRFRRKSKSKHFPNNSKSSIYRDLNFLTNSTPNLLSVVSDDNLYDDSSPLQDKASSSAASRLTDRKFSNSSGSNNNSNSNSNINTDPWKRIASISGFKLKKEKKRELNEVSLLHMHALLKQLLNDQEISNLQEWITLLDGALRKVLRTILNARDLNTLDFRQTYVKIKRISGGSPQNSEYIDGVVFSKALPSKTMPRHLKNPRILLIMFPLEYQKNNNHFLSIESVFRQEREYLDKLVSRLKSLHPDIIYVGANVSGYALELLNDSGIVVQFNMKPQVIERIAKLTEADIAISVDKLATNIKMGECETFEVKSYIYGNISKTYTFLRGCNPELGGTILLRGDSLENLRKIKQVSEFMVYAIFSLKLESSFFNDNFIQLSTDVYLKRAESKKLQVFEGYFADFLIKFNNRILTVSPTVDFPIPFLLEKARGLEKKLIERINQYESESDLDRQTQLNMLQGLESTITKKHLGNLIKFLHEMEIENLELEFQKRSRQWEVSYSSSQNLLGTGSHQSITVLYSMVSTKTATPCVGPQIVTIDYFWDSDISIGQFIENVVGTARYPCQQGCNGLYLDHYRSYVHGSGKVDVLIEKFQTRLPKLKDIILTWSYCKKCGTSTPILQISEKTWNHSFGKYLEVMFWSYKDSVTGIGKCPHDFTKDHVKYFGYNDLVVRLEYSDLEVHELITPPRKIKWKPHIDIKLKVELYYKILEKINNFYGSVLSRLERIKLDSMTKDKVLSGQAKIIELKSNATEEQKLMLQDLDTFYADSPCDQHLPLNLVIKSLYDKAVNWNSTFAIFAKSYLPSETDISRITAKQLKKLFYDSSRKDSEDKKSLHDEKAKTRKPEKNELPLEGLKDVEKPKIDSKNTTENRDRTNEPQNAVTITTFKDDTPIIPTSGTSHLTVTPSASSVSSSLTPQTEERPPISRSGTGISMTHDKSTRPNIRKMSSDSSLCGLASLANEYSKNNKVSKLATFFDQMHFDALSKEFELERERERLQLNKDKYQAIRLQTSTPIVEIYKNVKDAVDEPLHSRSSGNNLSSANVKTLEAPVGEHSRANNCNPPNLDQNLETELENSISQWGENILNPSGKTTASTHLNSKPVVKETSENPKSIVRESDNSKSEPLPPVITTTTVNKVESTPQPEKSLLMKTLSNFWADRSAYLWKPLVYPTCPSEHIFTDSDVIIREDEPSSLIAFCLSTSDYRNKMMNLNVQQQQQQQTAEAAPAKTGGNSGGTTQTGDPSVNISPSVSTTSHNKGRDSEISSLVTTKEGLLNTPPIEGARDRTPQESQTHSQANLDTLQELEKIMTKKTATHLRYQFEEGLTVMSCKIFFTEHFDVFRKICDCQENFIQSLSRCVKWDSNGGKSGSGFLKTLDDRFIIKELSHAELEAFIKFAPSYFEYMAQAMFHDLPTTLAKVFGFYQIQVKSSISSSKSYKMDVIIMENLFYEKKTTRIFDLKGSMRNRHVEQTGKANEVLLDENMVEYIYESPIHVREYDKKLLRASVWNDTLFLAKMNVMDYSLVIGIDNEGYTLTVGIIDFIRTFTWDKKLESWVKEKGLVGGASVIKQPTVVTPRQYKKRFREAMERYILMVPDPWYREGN

B1: Saccharomyces cerevisiae Vac14p (other)
chain: MEKSIAKGLSDKLYEKRKAAALELEKLVKQCVLEGDYDRIDKIIDELCRDYAYALHQPMARNAGLMGLAATAIALGINDVGRYLRNILPPVLACFGDQNDQVRFYACESLYNIAKIAKGEILVYFNEIFDVLCKISADTENSVRGAAELLDRLIKDIVAERASNYISIVNNGSHGLLPAIKTDPISGDVYQEEYEQDNQLAFSLPKFIPLLTERIYAINPDTRVFLVDWLKVLLNTPGLELISYLPSFLGGLFTFLGDSHKDVRTVTHTLMDSLLHEVDRISKLQTEIKMKRLERLKMLEDKYNNSSTPTKKADGALIAEKKKTLMTALGGLSKPLSMETDDTKLSNTNETDDERHLTSQEQLLDSEATSQEPLRDGEEYIPGQDINLNFPEVITVLVNNLASSEAEIQLIALHWIQVILSISPNVFIPFLSKILSVLLKLLSDSDPHITEIAQLVNGQLLSLCSSYVGKETDGKIAYGPIVNSLTLQFFDSRIDAKIACLDWLILIYHKAPNQILKHNDSMFLTLLKSLSNRDSVLIEKALSLLQSLCSDSNDNYLRQFLQDLLTLFKRDTKLVKTRANFIMRQISSRLSPERVYKVISSILDNYNDTTFVKMMIQILSTNLITSPEMSSLRNKLRTCEDGMFFNSLFKSWCPNPVSVISLCFVAENYELAYTVLQTYANYELKLNDLVQLDILIQLFESPVFTRMRLQLLEQQKHPFLHKCLFGILMIIPQSKAFETLNRRLNSLNIWTSQSYVMNNYIRQRENSNFCDSNSDISQRSVSQSKLHFQELINHFKAVSEEDEYSSDMIRLDHGANNKSLLLGSFLDGIDEDKQEIVTPISPMNEAINEEMESPNDNSSVILKDSGSLPFNRNVSDKLKK
notes: 880 amino acid polypeptide; In the Western blot it is the endogenous protein of yeast cell extracts; also called Vac14 yeast; YLR386W product
  binding result: no binding
